Measured values published in patent US20200109202A1 (published 2020).

Columns and labels:
[1] = biological target: T1, CD16A (FcγRIIIA) on primary human NK cells (human, UniProt P08637 17-254); test: flow cytometry, DyLight650-labelled antibody on fresh human NK cells (FIG. 40A)
T1 construct: whole, on cells
Method: Fresh prepared human NK cells were pre-incubated for 1-hours at 37 C with and without 10 mg/mL of SCIG (Hizentra), then stained with DyLight650 labeled anti-AFM26/CD16a at indicted concentrations. […] NK (FIG. 40D) and MM.1S cells (FIG. 40C) were preincubated separately in 50% human autologous serum for 2 hours prior to assay setup. NK cells were co-cultured with MM.1S tumor cell line at an approximate E:T ration of 5, and exposed to 10-fold serial diluted test articles from 0.1-100 nM for approximately 20 hours at 37 C with 5% CO₂. Antibody staining with CD138 and CD56 followed by FACS were used to monitor cytotoxicity of MM.1S target cells and NK survival. Data were analyzed with the software programs FlowJo and GraphPad Prism 6.

[2] = biological target: T1, CD16A (FcγRIIIA) on primary human NK …; test: flow cytometry, primary human NK cells, 37 C, buffer
[3] = biological target: T2, human CD16A-158V ECD fused to monomeric Fc (human, UniProt P08637 17-208); test: ELISA, CD16 antigen coated at 0.5 µg/mL (10 nM), without competition
T2 construct: extracellular domain; also called CD16A-158V ECD-monomeric Fc-fusion antigen; CD16A-158V ECD-Fc fusion antigen; not shown: monomeric Fc (Ying et al. 2012), silent; Avi-tag in the SPR form
T2 sequence (P08637 17-208 F176V): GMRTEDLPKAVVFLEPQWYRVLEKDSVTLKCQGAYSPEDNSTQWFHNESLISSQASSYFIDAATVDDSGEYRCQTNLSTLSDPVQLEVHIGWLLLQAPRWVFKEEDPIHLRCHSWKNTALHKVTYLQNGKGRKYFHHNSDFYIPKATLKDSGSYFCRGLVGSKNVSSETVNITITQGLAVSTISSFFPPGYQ

[4] = biological target: T3, human CD16A-158F ECD fused to monomeric Fc (human, UniProt P08637 17-208, biotinylated on the Avi-tag in the SPR form); test: ELISA, antigen coated at 1.5 µg/mL, His-tagged scFv titrated
T3 construct: extracellular domain; not shown: monomeric Fc (Ying et al. 2012), silent; Avi-tag in the SPR form
T3 sequence (P08637 17-208): as the sequence (P08637 17-208 F176V) above, with V160F counted along it

[5] = biological target: T2, human CD16A-158V ECD fused to monomeric …; test: as above
[6] = biological target: T4, Cynomolgus CD16A ECD fused to monomeric Fc (cynomolgus, UniProt Q8SPW2 17-208, biotinylated on the Avi-tag in the SPR form); test: as above
T4 construct: also called biotinylated mono-Fc(silent)-Avi-tagged cynomolgus CD16; not shown: monomeric Fc fusion partner (Avi-tag in the SPR form)
T4 sequence (Q8SPW2 17-208): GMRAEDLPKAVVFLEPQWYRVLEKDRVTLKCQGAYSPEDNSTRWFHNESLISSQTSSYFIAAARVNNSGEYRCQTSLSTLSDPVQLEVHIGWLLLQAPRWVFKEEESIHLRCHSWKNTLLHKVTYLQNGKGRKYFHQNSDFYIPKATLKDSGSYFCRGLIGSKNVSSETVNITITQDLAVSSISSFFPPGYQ

[7] = biological target: T2, human CD16A-158V ECD fused to monomeric …; test: SPR, Biacore T200, receptor captured, 1:1 model
[8] = biological target: T1, CD16A (FcγRIIIA) on primary human NK …; test: flow cytometry, primary human NK cells, 37 C, with 10 mg/mL polyclonal human IgG as competitor
[9] = biological target: T2, human CD16A-158V ECD fused to monomeric …; test: ELISA, CD16 antigen coated at 0.5 µg/mL (10 nM), with 8-10 nM 3G8 IgG as competitor
[10] = biological target: T5, biotinylated, recombinant human CD16A(48R-158V) fused to human IgG1 Fc portion (human, UniProt P08637 17-208, biotinylated (site not stated)); test: ELISA, coated construct, soluble CD16A(48R-158V)-Fc
T5 construct: also called CD16A soluble antigen; recombinant human CD16A soluble antigen; not shown: human IgG1 Fc portion
T5 sequence (P08637 17-208 L66R/F176V limits assumed): as the sequence (P08637 17-208 F176V) above, with L50R counted along it

T1 sequence (P08637 17-254): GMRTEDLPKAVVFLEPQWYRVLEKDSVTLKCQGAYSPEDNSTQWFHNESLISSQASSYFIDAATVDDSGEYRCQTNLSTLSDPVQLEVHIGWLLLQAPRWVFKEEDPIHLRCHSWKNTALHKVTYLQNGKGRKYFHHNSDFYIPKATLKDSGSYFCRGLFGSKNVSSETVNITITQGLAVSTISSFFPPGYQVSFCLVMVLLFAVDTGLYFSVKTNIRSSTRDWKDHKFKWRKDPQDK

B1: CD16A/BCMA antibody I (bispecific antibody, human IgG1, kappa)
heavy: EVQLLESGGGLVQPGGSLRLSCAASGFTFSNYDMAWVRQAPGKGLEWVSSISTRGDITSYRDSVKGRFTISRDNSKNTLYLQMNSLRAEDTAVYYCARQDYYTDYMGFAYWGQGTLVTVSSASTKGPSVFPLAPSSKSTSGGTAALGCLVKDYFPEPVTVSWNSGALTSGVHTFPAVLQSSGLYSLSSVVTVPSSSLGTQTYICNVNHKPSNTKVDKKVEPKSCDKTHTCPPCPAPEFEGGPSVFLFPPKPKDTLMISRTPEVTCVVVAVSHEDPEVKFNWYVDGVEVHNAKTKPREEQYNSTYRVVSVLTVLHQDWLNGKEYKCKVSNKALPAPIEKTISKAKGQPREPQVYTLPPSREEMTKNQVSLTCLVKGFYPSDIAVEWESNGQPENNYKTTPPVLDSDGSFFLYSKLTVDKSRWQQGNVFSCSVMHEALHNHYTQKSLSLSPGGGGGSGGGGSGGGGSGGGGSGGGGSGGGGSSYVLTQPSSVSVAPGQTATISCGGHNIGSKNVHWYQQRPGQSPVLVIYQDNKRPSGIPERFSGSNSGNTATLTISGTQAMDEADYYCQVWDNYSVLFGGGTKLTVLGGSGGSGGSGGSGGSGGSGGSQVQLVQSGAEVKKPGESLKVSCKASGYTFTSYYMHWVRQAPGQGLEWMGAIEPMYGSTSYAQKFQGRVTMTRDTSTSTVYMELSSLRSEDTAVYYCARGSAYYYDFADYWGQGTLVTVSS
light: AIQMTQSPSSLSASVGDRVTITCRASEDIYNGLAWYQQKPGKAPKLLIYGASSLQDGVPSRFSGSGSGTEFTLTISSLQPEDEATYYCAGPHKYPLTFGGGTKVEIKRTVAAPSVFIFPPSDEQLKSGTASVVCLLNNFYPREAKVQWKVDNALQSGNSQESVTEQDSKDSTYSLSSTLTLSKADYEKHKVYACEVTHQGLSSPVTKSFNRGEC
notes: also called BCMA/CD16A antibody I; anti-BCMA/CD16a
binding result [1]: binds

B2: scFv 3G8 (scFv containing the variable domains of the CD16 pan-specific antibody 3G8) (scFv)
chain 1: QVTLKESGPGILQPSQTLSLTCSFSGFSLRTSGMGVGWIRQPSGKGLEWLAHIWWDDDKRYNPALKSRLTISKDTSSNQVFLKIASVDTADTATYYCAQINPAWFAYWGQGTLVTVS
chain 2: DIVLTQSPASLAVSLGQRATISCKASQSVDFDGDSFMNWYQQKPGQPPKLLIYTTSNLESGIPARFSASGSGTDFTLNIHPVEEEDTATYYCQQSNEDPYTFGGGTKLELK
Kd [2]: 3.8 nM | EC50 [3]: 0.9 nM | EC50 [4]: 0.58 nM | EC50 [5]: 0.33 nM | EC50 [6]: 0.87 nM | Kd [7]: 8.6 nM | Kd [8]: 64.6 nM | EC50 [9]: 19.7 nM

B3: scDb-Tribody_01 (other)
VL: SYVLTQPSSVSVAPGQTATISCGGHNIGSKNVHWYQQRPGQSPVLVIYQDNKRPSGIPERFSGSNSGNTATLTISGTQAMDEADYYCQVWDNYSVLFGGGTKLTVL
VH: QVQLVQSGAEVKKPGESLKVSCKASGYTFTSYYMHWVRQAPGQGLEWMGIINPSGGSTSYAQKFQGRVTMTRDTSTSTVYMELSSLRSEDTAVYYCARGSAYYYDFADYWGQGTLVTVSS
notes: Trispecific; LSIV21 scDb VL-VL-VH-VH; connector1 NO:20, no hinge, no Fc, connector2 NO:20
EC50 [10]: 0.65 nM
